Test: soluble on expression in E. coli; label from the status in PepcDB or PDB records

**Q.** For “MASDENIGADGEQKPSRPFLRKGQGTARFRMPRNNKTSAGAPPTSELSSASSPSINVPRFSLSNALPNSARTVDSGISNEDETRPPTTASLPMDQPSLSSSPENRLNPAPSVAEEHGHSGQHAEEEEDNDTDEVSAMPSFVPDEPSTLVNSDHELSDDALKYKNAAAEFKAFERRMDSMRSASTITTSLATPSSCAPSNSSEPPTRSTPIMNDLGVGPNNHNWPSSMQELSGISLETPQARPLGSNRINQLVRSEAQTGISLLQHHERPTVTAPLRRNDMMNSSRQNPQNGNVQDENRPEHVYDQPIHVPGSSLDRQKLEIEIRRHRNLNIQLRDTIAHLDYAEESVHTTKRQLEEKISEVNNFKKELIEEFKKCKKGVEEEFEKKFEKIKEDYDELYEKLKRDQRDLERDQKILKKGTGERNKEFTETIATLRDKLRASETKNAQYRQDIRVRDEKLKKKDEEIEKLQKDGNRLKSTLQTLEKRVKQLRTEKERDDKEKEMFAKVAMNRKTSNPVPPVLNQSVPISITSNGPSRHPSSSSLTTFRKPSTSNRERGVSWADEPNEQSLEAVPQEFLMMPVKEMPGKFGKCTIYRDSLGETSKVTDTIANGLLFEYSNGDLRWVNRQNAVNIYISAVDKTVRIDLPTYNISIIHTFQRQVEVLRPGNNITLISIKRREVRTDLIYQNGMYKTEIFNRDGRYVTKDFSNQEVSRKYNPGTHTYRDNQCRYVLVTDYNDFELVEPEFRLRWYQGDPTGLNNQYILKIIGRPECSEKTLRLEVNLSTCEGTLETAEMIGDKRRKTTLFQWKK”, which “soluble on expression in E. coli” value is on record?
**A.** not soluble

**Q.** For “MSTNEAAASQEDIALAQGAVLVKSCQVPDGSIPIRGFDFSTASGPDFSLSAILSSYMSTGFQATHLAQAIQQVNQMLSLRDTPLTCDDDEKLFPYPEGRQKRSCTIFLGYTSNLVTSGLREVLRYCVQRNLVDCIVTSAGGIEEDLIKCLKPSYLGTFTMDGAKLRSNGMNRAGNVLIPNDNYCAFEDWLMPILDECLVEQEEKHLNWTPSKLIQRLGERIGDESSILYWAAKHRIPVFCPALTDGSLGDMLYFHSVKSSPGLRVDIVEDVRHINTIAVKSFKTGSIILGGGVVKHHINNANLMRNGADHTVYINTGQEFDGSDSGAQPDEAVSWGKVKPSAGAVKVHAEATLVFPLLVAETFAKHEGHKD”, which “soluble on expression in E. coli” value is on record?
**A.** not soluble

**Q.** With “MSLGKYFGTDGVRGEANVELTPELAFKLGRFGGYVLSQHEPDRPRVFVARDTRISGELLESALVAGLLSVGIEVYKLGVLATPGVSYLVRTEQASAGVMISASHNPALDNGIKFFGGDGFKLADEQEAEIEALLDAKEDDLPRPSAQGLGMVVDYPEGLRKYEKFLVSTGSDLEGMKIAIDAANGAASYSARQVFLDLNADITVIGEEPDGLNINDGVGSTHPEQLQNLVKGSDFVIGLAFDGDSDRLIAVDENGEIVDGDKIMYIIGKYLSEKGRLSKNTIVTTVMSNLGFHKALDRENINKKITAVGDRYVVEEMRRSGYNLGGEQSGHVIIMDYNTTGDGQLTAIQLTKVMKETGKTLSELANEVTIYPQKLVNIYVKNDMKNKAMEVPMIAQIIEKMEAEMAGNGRILVRPSGTEPLLRVMAEAPSTEEVNYYVDTIAKVVKTEIGIEGHHHHHH” as the sequence, how does the “soluble on expression in E. coli” value read?
**A.** soluble

**Q.** Which “soluble on expression in E. coli” value does the source give for “MSLILIKNVSYYIDNNLNVHENCDILIEKVENSEIKLTTGKNLLEKLNLNQNDLKIISGEKKCAIPGLYNAHTHVPMTLLRGIADDMILQDWLNQKIWPNEAKLNKNDVYYGSLLGCLEMLRFGVTSFNEMYFFSEEILKATKEIGLNAQVSYPIIDFGTPEEQSIDKLLTSAESFVKNNVGEKNIKVGIAPHAPYTCSEETYQKCSEISNDYNVNMHTHVSETRYEVVELENKIGMRPVEYLEKIGVLNEKLHAAHCVWITKDEAKKLAKNNAKVLHCPTSNMKLASGGVMPLFELLEYGADISVGTDGPASNNNLDILKEMKMTSLLHKAHRWDPTVAGIDTVLKMGINSESIEIKNNDIILIDLDSAHLRPFNNIKSNIVYSAFGNDVDTVIVGGNILLENKKYKFSETFISNIYKNIQKITEKFEEGHHHHHH” here?
**A.** not soluble

**Q.** Which “soluble on expression in E. coli” value does the source give for “MSLSETTQTSQSLYQALWNSADVLRSKMDANDYKSYLLGMVFYKYLSDKMLFFVAETMEEETESLDEALAVYRKYYEDEETHEDLLAVITDEMSYAIHPDLTFTALVERVNDGSFQLEDLAQGFRDIEQSDELYENLFEDIDLYSKKLGATPQKQNQTVAAVMKELAVLDVAGHAGDMLGDAYEYLIGQFATDSGKKAGEFYTPQPVAKLMTQIAFLGREDKQGFTLYDATMGSGSLLLNAKRYSRQPQTVVYFGQELNTSTYNLARMNMILHGVPIENQFLHNADTLDEDWPTQEPTNFDGVLMNPPYSAKWSASSGFMDDPRFSPFGKLAPKSKADFAFLLHGYYHLKQDNGVMAIVLPHGVLFRGNAEGTIRKALLEEGAIDTVIGLPANIFFNTSIPTTVIILKKNRTNRDVYFIDASKEFDKGKNQNIMTDAHIEKILNAYKSREDIDKFAHLASFEEIVENDYNLNIPRYVDTFEEEEVEPLTEIVAKINQTNATIESQTASLLDMLGQLHGTTPEADEELKAFVKAFKGEGHHHHHH” here?
**A.** soluble

**Q.** Which “soluble on expression in E. coli” value does the source give for “MESTVTTQEEKLAYQQSVEMASNYANQFDADMKANLAIARTISTTMESYETADRDEALLILENLLRDNPHLLGTYVAFEPDAFDGKDAEYTNSPAHDGTGRFVPYWNKMNGTASVAPLLHYDSSDYYQLPKATEKDVLTEPYFYEGVFMVSYVSPIMKEGEFAGIGGVDVSLEYVDEVVSKVRTFDTGYAFMVSNSGVILSHPTHKDWIGKKDLYDFGGEELEKASRDIKNGIGGHLETADPTTGKTVILFYEPVETGDFAFVLVVPKEEMLAGVADLRERLLEHHHHHH” here?
**A.** soluble

**Q.** Which “soluble on expression in E. coli” value does the source give for “MNSNYKRYKMLVFDLDGTLLNNNHEIAFLTLEVLLALKEDFKIIIATGRRLSEVKNIRSQLKEISINENYLVTANGAEVFLQENLIFRYAMNYDLAKEILKINTDNVDVNLYTFDTWYSNADVKSPIMKHFIKDLGLNVIIGDLTKLNVDSVSKIVYYCDDLAILNKLDTEIKSKDFQDTRVFFSSKDLLEVTNINANKYNAIKNIAFLESIPLCDVLAFGDNNNDYEMLKNLGKGVLMKNANEFLKINLAKNEITRFSNNEDGVARFLIDFFKLNIKY” here?
**A.** not soluble

**Q.** With “MAHHHHHHMSGGDIWVRRAPIGHPREMTVSTSVNNGPGPQGRHLFAELPINAGGGEVVLGECGTSGPSRSCNAMFSFKPPRHEPLWQPTRLTSPYCVLSANGVQDDFYTSCLSWGKGNIALALRDEVLLFQPSRPLVRLAVLNVQERPRSIISRVTSVAVSRFSDSSCFMGELDGSVGVYASRGDGRLSQTSVFSKPPPPLENTPLAGEAAMTATASVRCLATTDVHPWLVAAGTAAQGLFIFDSRCEKPSAQMVECDTFIALDSKRARKPLSPEDCLSLLSSAEGICGVSWNASGSLVATGGSGGVVNIWSLSQTRAPVQQIKLPNAHTTVKAIAFNPTLPYELAVGGGTNDGMLRLYDVSSSVSYLAWCVSTGCQVTQALYSPDGAFIISAQGLRHDKFTADGRAHSTALRMPNSNGAGVDVHRDSMDALERLTEEFERGMTRNGRTQEELQEPAPSHSGTAMNWAGDTPRTDDSPAFSLVMWRRGTQHRHSVPLGFSNTKPRDRPRSQYIQETERTPLPLFSMYMMTGHRSRPLHLASPFSSTADRGSVASFAGGVDNTIRFWKCFCPRSEAVNWEHRTRASMRAAVTEEDVEGMMAMPLR” as the sequence, how does the “soluble on expression in E. coli” value read?
**A.** not soluble

**Q.** With “MKNVGFIGWRGMVGSVLMQRMVEERDFDAIRPVFFSTSQLGQAAPSFGGTTGTLQDAFDLEALKALDIIVTCQGGDYTNEIYPKLRESGWQGYWIDAASSLRMKDDAIIILDPVNQDVITDGLNNGIRTFVGGNCTVSLMLMSLGGLFANDLVDWVSVATYQAASGGGARHMRELLTQMGHLYGHVADELATPSSAILDIERKVTTLTRSGELPVDNFGVPLAGSLIPWIDKQLDNGQSREEWKGQAETNKILNTSSVIPVDGLCVRVGALRCHSQAFTIKLKKDVSIPTVEELLAAHNPWAKVVPNDREITMRELTPAAVTGTLTTPVGRLRKLNMGPEFLSAFTVGDQLLWGAAEPLRRMLRQLA” as the sequence, how does the “soluble on expression in E. coli” value read?
**A.** soluble

**Q.** For “SSDSFDRAPEQTKPQRAPPSSQDKIPQQNSESAMAKPQVVVAPVLMSKLSANAPEFYPSGYSSNYTESYEDGCEDYPTLSEYVQDFLNHLTEQPGSFETEIEQFAETLNGWVTTDDALQELVELIYQQATSIPNFSYMGARLCNYLSHHLTISPQSGNFRQLLLQRCRTEYEAKDQAAKGDEVTRKRFHAFVLFLGELYLNLEIKGTNGQVTRADILQVGLRELLNALFSNPMDDNLICAVKLLKLTGSVLEDTWKEKGKTDMEEIIQRIENVVLDANCSRDVKQMLLKLVELRSSNWGRVHATSTYREATPENDPNYFMNEPTFYTSDGVPFTAADPDYQEKYQELLEREDFFPDYEENGTDLSGAGDPYLDDIDDEMDPEIEEAYEKFCLESERKRKQ”, which “soluble on expression in E. coli” value is on record?
**A.** not soluble

**Q.** With “YSGLHLCESHLCRAVTKRVRRRIREDGLVSDDATVEDPETWVIGLSGGKDSVVLTQILHDTFAEDPRIELVALSIHEGIEGYRDASLEACEELTDDLGIEHVTVSYAEEFGVQMDDVVEDDPEGMAACAYCGVFRRDLLSKYAEELDADKLLTGHNLDDEAETALMNFLEGDISQIAKHFEASLGPFDSSADAPTEQTREAQDHHIPRAKPLRDIPEKEVALYARFEDLPAHITEC” as the sequence, how does the “soluble on expression in E. coli” value read?
**A.** not soluble

**Q.** With “MSLTEILIVEDDDIIATLIERFLLQREYVVCAKVATGEDALYKAAEHLPDLVLMDINLAGKIDGITATKFITAIFHIPVIFLSGQDDETTLERATMAEPASFIIKPFNAKDLYSNIEIALHNDRILKRSKDYKGGKIRRIARAALSELDAYFILDKRGRIVFINPYGEHLLNVHRNDIILKPIGKYLTFYDTRQNTVFTDTFQDVIRESLVLGVRQHIAVKMSDNSFRHVVIQSTSIRDSENETIGMIVRMHMKTKSEEGHHHHHH” as the sequence, how does the “soluble on expression in E. coli” value read?
**A.** soluble

**Q.** For “MQEQAQQFIFKVTDKAVEEIKKVAQENNIENPILRIRVVPGGCSGFQYAMGFDDTVEEGDHVFEYDGVKVVIDPFSMPYVNGAELDYVVDFMGGGFTIRNPNATGSCGCGSSFSCGLEHHHHHH”, which “soluble on expression in E. coli” value is on record?
**A.** soluble

**Q.** Which “soluble on expression in E. coli” value does the source give for “MISLIAALAVDRVIGMENAMPWNLPADLAWFKRNTLDKPVIMGRHTWESIGRPLPGRKNIILSSQPGTDDRVTWVKSVDEAIAACGDVPEIMVIGGGRVYEQFLPKAQKLYLTHIDAEVEGDTHFPDYEPDDWESVFSEFHDADAQNSHSYCFEILERR” here?
**A.** soluble

**Q.** Which “soluble on expression in E. coli” value does the source give for “MSLNITGIQSDWKVEKIEFAKLTGERARSAGANGRIGVHGKSCTVDIARITIDGQTGYGSSIHMTPEWAEDVIGRRLLDLFDDRGRLREAYRLQLEYPVLDWLGQRQGKPVYDLVSGAHLETGASLVVPCYDTSLYFDDLHLADERAAVALMQEEAMQGYAKGQRHFKIKVGRGGRHMPLWEGTKRDIAIVRGISEVAGPAGKIMIDANNAYNLNLTKEVLAALSDVNLYWLEEAFHEDEALYEDLKEWLGQRGQNVLIADGEGLASPHLIEWATRGRVDVLQYDIIWPGFTHWMELGEKLDAHGLRSAPHCYGNAYGIYASGHLSAAVRNFEFVEYDDITIEGMDVSGYRIENGEIHVPATPGFGIVFDDELVTYLINRSGWSEGHHHHHH” here?
**A.** soluble

**Q.** With “MVKRANTFAMRPLTADDEQVLRDLLDASAALWNEINYQRLMRYNDKDGFEDEDVWDADTGALEGKYKAVLGASTAQTVRRANTEAWRSFFRLKKQFHDESNTSVTEHPEPPGFRGNKDDGRVLKGVVRKDAYSVEWGDRSRLEMVVGEQLRDRHNSPKSRLRLEIVGDPNWSDYEDQGRLELWYDETDCTFRASQPVTVSDDARATPLANEKAALDIGANNLVACTTTTGQQYLYEGRELFQRFRETTREIARLQSKLPEGRYSSKRIRRLYRKRTRRRDHAQETLCRDLLEQLYGEGVDTVYIGGLTDVLETHWSAETNAKTHNFWAFKQFTERLAWTADEYGISVEVRSEAWTSQECPQCGSTDRTTRQQDTLTCPCGFEGHADVTASETFLERHTEKAVRPMARPVRFEWDDHEWSESPRSPARESPKEQRTDPSTVPRDGNVVSGDSLEHHHHHH” as the sequence, how does the “soluble on expression in E. coli” value read?
**A.** not soluble

**Q.** For “MSVNPFFDPRTLGEMVFGDNGRLDREYVPISENNDDLSDCRNEIVDTHEKFSVNLNVPDVKPEELKINLEGRKLSIKAEHQEIENDNISTTQTYSKSIVLPEDVDVTHLSSNLSEDGKLLIEVPKVEAKKTNFFGFLSKFRCMPESQ”, which “soluble on expression in E. coli” value is on record?
**A.** not soluble

— the DeepSol protein solubility set
